Paper PMC6078178 (Nature, 2017)

Target: T1, Tfa1 (TFIIE subunit) (S. cerevisiae, UniProt P36100 1-482)
T1 sequence (looked up): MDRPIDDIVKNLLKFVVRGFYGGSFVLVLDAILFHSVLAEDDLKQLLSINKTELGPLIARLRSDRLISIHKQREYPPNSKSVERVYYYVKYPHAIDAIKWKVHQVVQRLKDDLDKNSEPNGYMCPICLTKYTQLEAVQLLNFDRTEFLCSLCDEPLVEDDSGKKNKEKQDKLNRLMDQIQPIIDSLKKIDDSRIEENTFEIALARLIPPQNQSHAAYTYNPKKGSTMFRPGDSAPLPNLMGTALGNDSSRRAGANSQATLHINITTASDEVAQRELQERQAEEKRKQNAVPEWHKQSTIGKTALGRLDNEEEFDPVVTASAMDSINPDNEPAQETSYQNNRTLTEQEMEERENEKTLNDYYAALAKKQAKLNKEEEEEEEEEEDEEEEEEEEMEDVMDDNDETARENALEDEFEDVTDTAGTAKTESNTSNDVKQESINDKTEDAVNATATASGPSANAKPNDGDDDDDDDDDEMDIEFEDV
Test: cross-linking

binding result: binds
B1: Ssl1 (natural protein, S. cerevisiae, UniProt Q04673 1-461, looked up)
chain: MAPVVISESEEDEDRVAITRRTKRQVHFDGEGDDRVDQQQQQHSSSHRDRDKHVQRKKKKRLSNRNLQGSNGGYAWEDEIKRSWDLVKVDDEGDMASLVASIVEARKKRTAKKNITPYQRGIIRSLILTLDCSEAMLEKDLRPNRHAMIIQYAIDFVHEFFDQNPISQMGIIIMRNGLAQLVSQVSGNPQDHIDALKSIRKQEPKGNPSLQNALEMARGLLLPVPAHCTREVLIVFGSLSTTDPGDIHQTIDSLVSEKIRVKVLGLSAQVAICKELCKATNYGDESFYKILLDETHLKELFNEAVTPLPVNKINKGFTLVKMGFPTRIFEDTPTFCSCHSKLVYGGYFCPNCHSKVCSLPTVCPCCDLMLILSTHLARSYHHLMPLKTFAEVPTTEKFRSEDCFSCQSRFPILKNHKNGKLLTSSRYRCEDCKQEFCVDCDVFIHEILHNCPGCESKPVIT
